In this assay the target is Alcaligenes xylosoxidans copper nitrite reductase (Alcaligenes xylosoxidans). The assay is described as follows: crystal structure; as-isolated AxNiR crystals, space group R3, one monomer in the asymmetric unit, trimer formed by crystal symmetry; SRX resting state at 1.6 Å (BL41XU, SPring-8, cryo); the SF-ROX structure (SACLA XFEL, 100 K, 1.6 Å) from the same batch of crystals has near-identical global architecture.

What is called stoichiometry N is a count of units in the complex or per binding partner. For “Alcaligenes xylosoxidans copper nitrite reductase (enzyme)”, the stoichiometry N is 3.

These data come from publication PMC5755574.
